Laboratory results taken from the supplement of paper PMC10065799, “High-throughput profiling of sequence recognition by tyrosine kinases and SH2 domains using bacterial peptide display” (eLife, 2023).

What was measured:
AncSZ = experiment: phosphorylation enrichment, bacterial display (enrichment ratio); higher = better substrate or ligand; peptides without Tyr show the background
EPHB1 = EPHB1 (UniProt P54762); experiment: as above
EPHB2 = EPHB2 (UniProt P29323); experiment: as above
FGFR1 = FGFR1 (UniProt P11362); experiment: as above
FGFR1, sequence (P11362 whole entry, looked up): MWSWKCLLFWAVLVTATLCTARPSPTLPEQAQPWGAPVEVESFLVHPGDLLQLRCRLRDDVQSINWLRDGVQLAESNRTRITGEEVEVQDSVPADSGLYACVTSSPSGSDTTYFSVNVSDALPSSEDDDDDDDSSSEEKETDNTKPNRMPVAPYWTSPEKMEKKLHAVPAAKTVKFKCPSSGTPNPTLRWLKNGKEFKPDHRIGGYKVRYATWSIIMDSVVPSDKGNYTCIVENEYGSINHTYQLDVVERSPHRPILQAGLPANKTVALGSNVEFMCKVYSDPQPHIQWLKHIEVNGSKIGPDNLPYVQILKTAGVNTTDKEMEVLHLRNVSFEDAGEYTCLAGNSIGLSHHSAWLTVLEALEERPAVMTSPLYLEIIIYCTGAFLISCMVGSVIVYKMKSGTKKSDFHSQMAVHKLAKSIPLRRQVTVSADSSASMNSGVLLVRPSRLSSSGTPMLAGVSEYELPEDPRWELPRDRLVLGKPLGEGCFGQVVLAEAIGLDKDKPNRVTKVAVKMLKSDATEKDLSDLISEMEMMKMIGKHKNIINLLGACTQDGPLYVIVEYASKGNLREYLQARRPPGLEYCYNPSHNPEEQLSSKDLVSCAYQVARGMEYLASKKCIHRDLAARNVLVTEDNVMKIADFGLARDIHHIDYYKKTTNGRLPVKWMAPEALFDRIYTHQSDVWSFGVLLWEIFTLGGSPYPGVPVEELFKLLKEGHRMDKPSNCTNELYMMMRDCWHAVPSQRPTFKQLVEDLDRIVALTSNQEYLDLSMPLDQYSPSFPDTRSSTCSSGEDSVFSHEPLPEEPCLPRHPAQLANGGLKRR

FGFR3 = FGFR3 (UniProt P22607); experiment: as above
Fer (mouse) = experiment: as above
Fes = Fes (UniProt P07332); experiment: as above
Fes, sequence (P07332 whole entry, looked up): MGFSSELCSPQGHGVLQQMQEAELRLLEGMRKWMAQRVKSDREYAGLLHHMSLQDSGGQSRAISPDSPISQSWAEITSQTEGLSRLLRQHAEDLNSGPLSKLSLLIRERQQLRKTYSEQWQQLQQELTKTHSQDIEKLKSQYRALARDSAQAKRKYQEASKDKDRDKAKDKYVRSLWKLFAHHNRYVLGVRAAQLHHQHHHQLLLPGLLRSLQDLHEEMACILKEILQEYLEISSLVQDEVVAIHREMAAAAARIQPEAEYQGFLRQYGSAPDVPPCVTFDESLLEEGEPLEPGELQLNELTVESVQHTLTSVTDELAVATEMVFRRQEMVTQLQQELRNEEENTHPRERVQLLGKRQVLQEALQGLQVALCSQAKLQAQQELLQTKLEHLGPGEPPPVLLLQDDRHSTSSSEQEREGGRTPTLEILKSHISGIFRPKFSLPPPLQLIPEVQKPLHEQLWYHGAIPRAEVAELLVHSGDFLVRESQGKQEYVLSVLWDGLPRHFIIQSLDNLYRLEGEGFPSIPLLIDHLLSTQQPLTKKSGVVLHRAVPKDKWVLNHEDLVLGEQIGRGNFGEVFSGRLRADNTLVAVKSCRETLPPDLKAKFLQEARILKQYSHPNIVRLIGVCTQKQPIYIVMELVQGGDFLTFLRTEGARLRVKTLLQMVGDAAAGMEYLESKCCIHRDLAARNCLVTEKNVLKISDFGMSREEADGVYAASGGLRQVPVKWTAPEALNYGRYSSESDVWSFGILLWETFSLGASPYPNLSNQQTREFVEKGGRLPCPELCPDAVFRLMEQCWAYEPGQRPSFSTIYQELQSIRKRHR

Fyn = Fyn (UniProt P06241); experiment: as above
Fyn, sequence (P06241 whole entry, looked up): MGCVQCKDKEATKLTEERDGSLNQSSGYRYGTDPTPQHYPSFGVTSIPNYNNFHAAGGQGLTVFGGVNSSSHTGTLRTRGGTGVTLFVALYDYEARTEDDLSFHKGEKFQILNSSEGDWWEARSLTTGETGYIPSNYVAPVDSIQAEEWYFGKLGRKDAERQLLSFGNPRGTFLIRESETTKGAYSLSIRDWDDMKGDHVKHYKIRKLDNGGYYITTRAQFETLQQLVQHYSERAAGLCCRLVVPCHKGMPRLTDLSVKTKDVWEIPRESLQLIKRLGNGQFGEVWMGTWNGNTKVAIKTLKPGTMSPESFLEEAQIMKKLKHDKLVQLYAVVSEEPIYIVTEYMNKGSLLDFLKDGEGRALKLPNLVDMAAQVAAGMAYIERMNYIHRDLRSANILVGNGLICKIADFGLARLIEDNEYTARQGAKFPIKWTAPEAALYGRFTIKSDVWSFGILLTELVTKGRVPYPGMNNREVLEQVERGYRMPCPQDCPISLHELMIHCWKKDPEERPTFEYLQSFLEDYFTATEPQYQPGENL

Hck = Hck (UniProt P08631); experiment: as above
Hck, sequence (P08631 whole entry, looked up): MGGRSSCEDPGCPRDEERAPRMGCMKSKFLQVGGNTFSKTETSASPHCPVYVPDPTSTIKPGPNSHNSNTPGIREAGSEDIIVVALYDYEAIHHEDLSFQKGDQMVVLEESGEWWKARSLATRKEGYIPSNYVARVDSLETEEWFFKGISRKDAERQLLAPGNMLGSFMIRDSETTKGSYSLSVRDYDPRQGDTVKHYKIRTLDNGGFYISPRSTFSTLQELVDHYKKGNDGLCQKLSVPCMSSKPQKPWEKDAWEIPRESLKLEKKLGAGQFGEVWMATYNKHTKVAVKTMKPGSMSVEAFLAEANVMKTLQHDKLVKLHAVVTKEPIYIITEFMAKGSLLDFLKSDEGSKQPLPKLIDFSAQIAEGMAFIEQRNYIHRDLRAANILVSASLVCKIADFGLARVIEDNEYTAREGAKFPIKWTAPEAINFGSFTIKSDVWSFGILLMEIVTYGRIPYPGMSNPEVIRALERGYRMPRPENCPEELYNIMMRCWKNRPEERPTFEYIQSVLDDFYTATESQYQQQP

Jak2 = Jak2 (UniProt O60674); experiment: as above
MERTK = MERTK (UniProt Q12866); experiment: as above
c-Abl (mouse) = experiment: as above
c-Src = experiment: as above
Grb2 SH2 = Grb2 SH2 (UniProt P62993); experiment: SH2 binding enrichment of the phosphorylated peptide, bacterial display (enrichment ratio); higher = better substrate or ligand; peptides without Tyr show the background
Grb2 SH2, sequence (P62993 whole entry, looked up): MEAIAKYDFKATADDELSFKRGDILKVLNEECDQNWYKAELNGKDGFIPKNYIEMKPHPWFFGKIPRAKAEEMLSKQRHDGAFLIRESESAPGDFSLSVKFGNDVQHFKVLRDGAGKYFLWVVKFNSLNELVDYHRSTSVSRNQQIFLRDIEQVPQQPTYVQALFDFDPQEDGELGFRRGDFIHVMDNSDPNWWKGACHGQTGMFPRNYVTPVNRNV

SHP2-C SH2 = experiment: as above
c-Src SH2 = experiment: as above
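Throughout, for SH2 binding enrichment of the phosphorylated peptide, bacterial display: peptide library displayed on the E. coli surface as eCPX fusions, selected cells deep-sequenced, score is each peptide's frequency after selection divided by its frequency in the input.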
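Throughout, for phosphorylation enrichment, bacterial display: 11-residue human phosphosite peptides and single-mutation variants displayed on the E. coli surface, counted by deep sequencing, each peptide's frequency after selection divided by its frequency in the unselected input library; frequency after pTyr selection over input frequency; kinase dosed for 20-30% of maximal phosphorylation in three min.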

EPHB1, sequence (P54762 whole entry, looked up): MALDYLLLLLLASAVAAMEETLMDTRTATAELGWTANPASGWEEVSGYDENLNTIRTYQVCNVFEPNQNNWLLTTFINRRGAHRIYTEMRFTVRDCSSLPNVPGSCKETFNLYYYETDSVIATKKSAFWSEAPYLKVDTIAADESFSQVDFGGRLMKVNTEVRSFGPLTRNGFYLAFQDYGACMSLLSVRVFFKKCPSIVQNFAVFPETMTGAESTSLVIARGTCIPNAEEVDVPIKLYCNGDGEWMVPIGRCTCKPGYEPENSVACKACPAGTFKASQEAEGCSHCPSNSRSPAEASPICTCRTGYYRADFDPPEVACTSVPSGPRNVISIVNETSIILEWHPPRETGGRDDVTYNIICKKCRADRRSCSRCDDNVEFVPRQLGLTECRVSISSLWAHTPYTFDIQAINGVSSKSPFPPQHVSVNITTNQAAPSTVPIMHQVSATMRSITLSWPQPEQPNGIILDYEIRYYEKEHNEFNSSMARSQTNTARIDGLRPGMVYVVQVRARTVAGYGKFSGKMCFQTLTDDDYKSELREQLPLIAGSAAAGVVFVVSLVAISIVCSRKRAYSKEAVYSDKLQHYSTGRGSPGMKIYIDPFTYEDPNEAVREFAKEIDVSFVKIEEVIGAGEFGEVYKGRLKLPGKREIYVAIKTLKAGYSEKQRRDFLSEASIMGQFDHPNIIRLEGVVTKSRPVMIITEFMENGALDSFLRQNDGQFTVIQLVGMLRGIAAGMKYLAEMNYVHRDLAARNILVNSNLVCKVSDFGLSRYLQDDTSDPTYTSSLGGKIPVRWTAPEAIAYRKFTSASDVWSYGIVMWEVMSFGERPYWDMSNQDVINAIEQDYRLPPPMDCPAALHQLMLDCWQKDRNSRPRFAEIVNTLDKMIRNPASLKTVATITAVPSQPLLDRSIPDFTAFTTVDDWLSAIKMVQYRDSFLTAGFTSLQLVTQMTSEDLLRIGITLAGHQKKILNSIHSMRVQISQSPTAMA
EPHB2, sequence (P29323 whole entry, looked up): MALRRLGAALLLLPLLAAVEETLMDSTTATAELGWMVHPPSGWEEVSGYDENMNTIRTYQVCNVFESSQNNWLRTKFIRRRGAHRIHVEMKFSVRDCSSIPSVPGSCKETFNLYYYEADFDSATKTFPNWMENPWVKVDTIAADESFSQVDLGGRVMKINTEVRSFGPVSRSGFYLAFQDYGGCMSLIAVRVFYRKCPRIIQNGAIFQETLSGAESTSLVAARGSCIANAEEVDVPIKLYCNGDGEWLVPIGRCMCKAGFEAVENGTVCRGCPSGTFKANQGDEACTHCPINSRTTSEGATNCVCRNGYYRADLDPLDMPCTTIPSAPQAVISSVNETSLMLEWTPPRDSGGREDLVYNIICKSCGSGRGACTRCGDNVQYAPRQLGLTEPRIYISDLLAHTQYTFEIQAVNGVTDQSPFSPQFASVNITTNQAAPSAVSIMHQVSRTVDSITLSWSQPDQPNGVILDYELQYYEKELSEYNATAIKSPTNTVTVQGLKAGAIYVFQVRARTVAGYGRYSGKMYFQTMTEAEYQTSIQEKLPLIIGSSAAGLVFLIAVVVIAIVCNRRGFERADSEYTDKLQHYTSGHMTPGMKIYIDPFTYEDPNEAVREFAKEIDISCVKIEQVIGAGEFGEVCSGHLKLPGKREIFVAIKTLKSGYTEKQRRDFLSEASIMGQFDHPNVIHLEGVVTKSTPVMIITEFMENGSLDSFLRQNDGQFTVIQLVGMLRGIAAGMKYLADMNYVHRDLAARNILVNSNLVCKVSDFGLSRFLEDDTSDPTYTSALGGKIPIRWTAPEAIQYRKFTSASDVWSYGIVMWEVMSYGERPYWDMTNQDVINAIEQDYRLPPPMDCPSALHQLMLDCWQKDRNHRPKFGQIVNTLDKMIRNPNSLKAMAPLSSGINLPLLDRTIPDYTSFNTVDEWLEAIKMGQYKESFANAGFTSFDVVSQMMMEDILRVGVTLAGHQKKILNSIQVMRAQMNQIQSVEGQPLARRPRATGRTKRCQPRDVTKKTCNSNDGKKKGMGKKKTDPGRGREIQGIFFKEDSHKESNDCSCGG

Sequence | phosphorylation enrichment (AncSZ) | phosphorylation enrichment (EPHB1) | phosphorylation enrichment (EPHB2) | phosphorylation enrichment (FGFR1) | phosphorylation enrichment (FGFR3) | phosphorylation enrichment (Fer (mouse)) | phosphorylation enrichment (Fes) | phosphorylation enrichment (Fyn) | phosphorylation enrichment (Hck) | phosphorylation enrichment (Jak2) | phosphorylation enrichment (MERTK) | phosphorylation enrichment (c-Abl (mouse)) | phosphorylation enrichment (c-Src) | SH2 binding enrichment (Grb2 SH2) | SH2 binding enrichment (SHP2-C SH2) | SH2 binding enrichment (c-Src SH2)
EKAEVYGSENE [RIOK2_Y348] | 1.11 | 0.464 | 0.52 | 0.455 | 0.625 | 0.457 | 1 | 0.566 | 0.464 | 0.911 | 0.445 | 0.609 | 0.483 | 0.825 | 0.567 | 0.618
EKESCYILHSS [PATJ_Y783_E779K] | 1.28 | 0.531 | 0.519 | 0.572 | 0.77 | 0.623 | 1.09 | 0.549 | 0.497 | 0.936 | 0.533 | 0.707 | 0.595 | 0.959 | 0.694 | 0.719
EKGEEYGGGGG [TUBA1A_Y451_E447K] | 0.847 | 0.585 | 0.574 | 0.578 | 0.67 | 0.499 | 0.855 | 0.448 | 0.63 | 0.578 | 0.296 | 0.384 | 0.293 | 0.911 | 0.729 | 0.51
EKLQKYYRKNP [EHHADH_Y682_Q685K] | 0.575 | 0.471 | 0.484 | 0.45 | 0.598 | 0.417 | 0.753 | 0.388 | 0.353 | 0.694 | 0.394 | 0.699 | 0.482 | 0.95 | 1.11 | 0.603
EKPAKYDDIKK [GAPDH_Y255] | 0.782 | 0.441 | 0.452 | 0.391 | 0.503 | 0.392 | 1.01 | 0.316 | 0.426 | 0.745 | 0.334 | 0.632 | 0.352 | 0.657 | 0.662 | 1.34
EKRDAYVSRLN [GSR_Y150] | 0.547 | 0.455 | 0.434 | 0.418 | 0.441 | 0.328 | 0.575 | 0.351 | 0.429 | 0.48 | 0.397 | 0.423 | 0.377 | 0.772 | 0.608 | 0.43
ELTAKYLNYYR [P3H4_Y181_Q186R] | 0.639 | 0.606 | 0.512 | 0.498 | 0.541 | 0.392 | 0.748 | 0.369 | 0.419 | 0.616 | 0.496 | 0.498 | 0.374 | 2.44 | 0.948 | 0.666
ENEGTYVCIAA [ADAMTSL3_Y1365_T1370A] | 1.34 | 1.55 | 1.09 | 1.53 | 1.62 | 1.05 | 1.36 | 1.39 | 1.21 | 1.05 | 0.69 | 1.08 | 1.75 | 0.471 | 0.402 | 0.425
ENGPFYTSFPP [GDAP2_Y488_YF] | 1.12 | 2.92 | 2.41 | 3.86 | 2.62 | 4.74 | 1.04 | 8.74 | 7.05 | 1.61 | 13.1 | 8.39 | 6.71 | 0.813 | 0.711 | 0.83
EPNSRYTCKLE [USH2A_Y3745_Y3747C] | 1.02 | 0.556 | 0.562 | 0.621 | 0.724 | 0.566 | 0.985 | 0.563 | 0.549 | 0.897 | 0.497 | 0.762 | 0.539 | 1.06 | 0.826 | 0.576
EQQRAYLEGTC [HLA-C_Y183_L180Q] | 0.939 | 0.647 | 0.555 | 0.599 | 0.602 | 0.455 | 1.03 | 0.518 | 0.556 | 0.93 | 0.521 | 0.834 | 0.531 | 0.916 | 0.758 | 0.69
EQSGSYIWVLA [DLG1_Y895_P899L] | 1.27 | 0.634 | 0.641 | 1.11 | 0.917 | 0.526 | 1.32 | 0.482 | 0.517 | 1.14 | 0.504 | 0.705 | 0.476 | 0.65 | 0.394 | 0.383
EREYKYGAHNY [OAT_Y50] | 0.516 | 0.354 | 0.376 | 0.348 | 0.43 | 0.35 | 0.558 | 0.445 | 0.333 | 0.5 | 0.397 | 0.506 | 0.394 | 0.927 | 0.783 | 0.623
ERRLIYASDPK [VPS13D_Y864_T865A] | 0.634 | 0.443 | 0.391 | 0.46 | 0.479 | 0.395 | 0.678 | 0.418 | 0.473 | 0.506 | 0.45 | 0.545 | 0.475 | 0.837 | 0.589 | 0.625
ESKKHYGFSLF [ANXA3_Y295_F291S_YF] | 1.01 | 0.574 | 0.541 | 0.572 | 0.678 | 0.526 | 1.03 | 0.513 | 0.528 | 0.93 | 0.526 | 0.676 | 0.453 | 1.03 | 0.717 | 0.644
ESLRPYDVMDV [KCNQ2_Y562] | 1.03 | 0.583 | 0.683 | 0.455 | 0.665 | 0.846 | 1.14 | 0.668 | 0.602 | 0.876 | 0.437 | 0.595 | 0.719 | 0.83 | 0.558 | 12.9
ETALHYIHDGI [GATD3A_Y250] | 0.818 | 0.524 | 0.525 | 0.412 | 0.637 | 0.525 | 0.796 | 0.433 | 0.432 | 0.775 | 0.431 | 0.659 | 0.48 | 0.786 | 1.03 | 0.501

Sequence | phosphorylation enrichment (AncSZ) | phosphorylation enrichment (EPHB1) | phosphorylation enrichment (EPHB2) | phosphorylation enrichment (FGFR1) | phosphorylation enrichment (FGFR3) | phosphorylation enrichment (Fer (mouse)) | phosphorylation enrichment (Fes) | phosphorylation enrichment (Fyn) | phosphorylation enrichment (Hck) | phosphorylation enrichment (Jak2) | phosphorylation enrichment (MERTK) | phosphorylation enrichment (c-Abl (mouse)) | phosphorylation enrichment (c-Src) | SH2 binding enrichment (Grb2 SH2) | SH2 binding enrichment (SHP2-C SH2) | SH2 binding enrichment (c-Src SH2)
ETGEPYRLSPE [EIF4G1_Y311] | 1.19 | 0.733 | 0.68 | 0.58 | 0.783 | 0.635 | 1.15 | 0.505 | 0.631 | 1 | 0.503 | 0.893 | 0.527 | 0.883 | 0.75 | 0.572
EVDELYREAPI [MYL12B_Y143] | 1.27 | 0.784 | 0.654 | 0.86 | 1.11 | 0.62 | 1.39 | 0.654 | 0.705 | 1.29 | 0.598 | 0.962 | 0.52 | 0.867 | 0.719 | 0.475
EWKQNYEESQS [MYH7_Y1460_K1459N] | 1.16 | 0.542 | 0.664 | 0.546 | 0.692 | 0.792 | 1.25 | 0.481 | 0.605 | 1.32 | 0.497 | 0.967 | 0.461 | 0.829 | 0.666 | 0.561
EYGFRYELVQY [UGGT2_Y1289] | 1.83 | 0.986 | 0.879 | 0.872 | 1.17 | 3.36 | 1.65 | 0.558 | 0.674 | 1.62 | 0.631 | 0.932 | 0.584 | 0.768 | 0.787 | 2.15
FADGVYQALEE [DUOX2_Y70_YF] | 1.49 | 1.97 | 1.5 | 0.696 | 0.666 | 1.1 | 1.3 | 3.65 | 3.3 | 0.979 | 1.38 | 0.749 | 3.81 | 1.15 | 0.882 | 0.75
FADIAYNFRHR [PAH_Y166_G171R_YF] | 0.577 | 0.343 | 0.425 | 0.317 | 0.44 | 0.348 | 0.652 | 0.407 | 0.374 | 0.487 | 0.405 | 0.537 | 0.415 | 0.888 | 0.872 | 0.547
FAELMYTGFWH [ASS1_Y322_V321M] | 2.17 | 3.52 | 4.76 | 2.32 | 2.02 | 5.42 | 1.67 | 6.85 | 4.7 | 2.02 | 7.12 | 3.16 | 6.43 | 0.918 | 0.816 | 0.538
FARNCYVAGQF [G6PD_Y107_S106C_YF] | 0.983 | 0.505 | 0.487 | 0.461 | 0.553 | 0.417 | 0.938 | 0.387 | 0.409 | 0.743 | 0.363 | 0.714 | 0.507 | 0.742 | 0.383 | 0.437
FCRITYDIFPF [INTS13_Y67_M66T_YF] | 1.66 | 2.38 | 3.05 | 0.514 | 1.05 | 0.594 | 1.6 | 1.31 | 2.62 | 1.29 | 2.2 | 1.12 | 2.36 | 1.03 | 0.853 | 0.485
FDDIAYIQKTL [PIK3CA_Y1021_R1023Q] | 0.832 | 0.425 | 0.68 | 0.503 | 0.6 | 0.352 | 0.819 | 0.479 | 0.488 | 0.952 | 0.529 | 0.591 | 0.485 | 0.939 | 0.939 | 0.626
FETDFYRKGGK [INSR_Y1190_YF] | 0.629 | 0.621 | 0.639 | 0.435 | 0.472 | 0.319 | 0.758 | 0.381 | 0.418 | 0.6 | 0.468 | 0.539 | 0.482 | 0.875 | 0.776 | 0.502
FFCRWYRNRKS [EREG_Y144_YF] | 0.442 | 0.421 | 0.514 | 0.463 | 0.409 | 0.312 | 0.453 | 0.563 | 0.326 | 0.433 | 0.433 | 0.421 | 0.51 | 0.705 | 0.858 | 0.516
FGAHNYHPLPV [OAT_Y55_YF] | 1.64 | 0.573 | 0.677 | 6.41 | 3.33 | 0.35 | 0.535 | 0.468 | 0.606 | 0.58 | 1.04 | 0.562 | 0.538 | 0.817 | 0.493 | 0.893
FGCTFYNQAIM [MCCC2_Y196_R193C] | 1.4 | 0.825 | 0.777 | 0.529 | 1.04 | 0.647 | 1.54 | 0.472 | 0.597 | 1.32 | 0.365 | 0.968 | 0.47 | 0.685 | 0.608 | 0.534
FGEFRYRSVIK [CFTR_Y517_D513G_YF] | 0.728 | 0.558 | 0.559 | 0.44 | 0.541 | 0.396 | 0.891 | 0.409 | 0.565 | 0.744 | 0.409 | 0.574 | 0.426 | 0.567 | 0.426 | 0.423
FGMQLYQNFMH [GRB14_Y347_YF] | 1.06 | 3.53 | 2.41 | 0.544 | 0.772 | 5.17 | 1.04 | 2.84 | 3.03 | 0.971 | 2.89 | 0.777 | 3.67 | 2.83 | 1.34 | 1.22
